Data published in article PMC7335327.
pKd: −log10 of the molar value. Each block holds one substance with its values, some of them ahead of it.

Assays:
[1] = molecular target: DnaB (Escherichia coli) (UniProt P0ACB0); conditions: cited from earlier work
[2] = molecular target: biotinylated clamp loader complex ^bioχψτ3δδ’ (Escherichia coli K12) (UniProt P28905); assay: SPR
[3] = molecular target: DnaB^F102C (Escherichia coli K12) (UniProt P0ACB0)
[4] = molecular target: DnaB helicase, wild type (DnaB^wt) (Escherichia coli K12) (UniProt P0ACB0)
[5] = molecular target: DnaB^F102C (Escherichia coli K12) (UniProt P0ACB0); assay: cross-linking

Substance: DnaG (from UniProt P0ABS5)
pKd [1]: 5.55

pKd [2]: 8.59
Substance: DnaB^wt•DnaGC complex (from UniProt P0ACB0 1-471)

fold less efficient interaction than with wild-type DnaB [3]: 200 fold
Substance: DnaGC, C-terminal helicase-binding domain of DnaG primase (domain or fragment)

fold weaker interaction than wild-type DnaGC [4]: 30 fold
disulfide crosslinking efficiency [5]: 100%
Substance: DnaGC^R568C/C492L (domain or fragment)
